Assay results from patent US11898183B2, “Programmed microorganisms to attenuate a disease” (priority 2020, dated 2024).

B1: 2-Deoxy-d-ribose-5-phosphate aldolase (DERA) (SEQ ID NO: 50) Desulfatibacillum aliphaticivorans (protein)
chain: MTGPKICVVGACNIDLISYVERLPVLGETLHGKKFSMGFGGKGANQAVMAAKLGGEVAMVGKLGRDVFGENTLANFKKLGVNVSHVHFTEEAFSGVAPIAVDDNGANSIIIVTGASDLLSAEEIRAAENAIAKSKVLVCQLEIPMEQNLEALRIARKNNVPTIFNPAPARPGLPDELYQLSDIFCPNESETEILTGMPVETMEQAEQAAKALLERGPKTVILTLGERGCLLVDANGARHIPTRKVEAIDTTGAGDCFVGSLAFFLAAGKSLEDAINRANKIAAVSVCGQGTQSSFPGASELDPEILSDIQPAESQAPAMSAKDLAQYIDHTLLKPEAPLSAFDKICEEAILHQFRSVCVNSCKISYIAKKLKGTGVDACAVIGFPLGAMSTAAKAFEAKQAVMDGAAELDMVINVGALKSGDFDAVFDDIKAVRDAAPLPIILKVIIETCLLTDEEKARACRIAKAADADFVKTSTGFSTGGATLEDIALMRDTVGPYMGVKASGGIKDAKTAIAMIEAGATRIGAGAGVEIVSGLQSDADGSY
modifications: Depicts the amino acid sequence of 2-Deoxy-d- ribose-5-phosphate aldolase (DERA) of Desulfatibacillum aliphaticivorans
B2: Cinnamte 4 hydroxylase 4 coumarate coenzyme ligase fusion (C4H4CL) (SEQ ID NO: 12) Azospirillum sp. (protein)
chain: MDLLLLEKTLLALFIAATIAITISKLRGKRFKLPPGPIPVPVFGNWLQVGDDLNHRNLTDLAKRFGDIFLLRMGQRNLVVVSSPELAKEVLHTQGVEFGSRTRNVVFDIFTGKGQDMVFTVYGTLAEMRRIMTVPFFTNKVVQQYRFGWEFEAQSVVDDVKKNPEACSSGIVLRRRLQLMMYNIMYRIMFDRRFESEEDPLFVKLKALNGERSRLAQSFEYNYGDFIPILRPFLKGYLKLCKEVKDRRLQLFKDYFVDERKKLGSTKSTTNEGLKCAIDHILDAQQKGEINDDNVLYIVENINVAAIETTLWSIEWGIAELVNHQKIQNKVREEIDRVLGPGHQVTEPDLQKLPYLQAVIKETLRLRMAIPLLVPHMNLHDAKLSGFDIPAESKILVNAWWLANNPAQWKKPEEFRPERFLEEESHVEANGNDFRYLPFGVGRRSCPGIILALPILGITLGRLVQNFELLPPPGQSKIDTAEKGGQFSLHILKHSTIVCKPRSFNGGGGSGGGGSGGGGSMTIQRWWRNRESLNRVLCDLLAGEFARLRPGGSPPAHPHRWPETLPLGPDGVGADSLDLLQLAAALNEALHLHRSGIEDYLLMHRTVGDWLDVCEAALGRFDGALSFRTSGSTGEGKRCEHPLAALEEEADALAALLSGGAEAPRRVVSVVPAHHIYGFLFTVLLPDRLAVPVVDGRGTSPGGLAARLGPGDLVVAHPDWWGALLRSGAALPDGVTGTSSTAPCPPDTARGVRGVGLARLVEVFGSSETAGLGWRESPDAPFRPFPWWRFGDDGRVTRRLADGTVLSATLQDRLSHDEEGFRPSGRLDTVVQVGGVNVSLAGVQAHLAGHPDVEAAAVRLMRPEEGTRLKAFIVPARTAPPREELYRRLTDWIEATLPAPHRPRALAFGPALPVNGMGKPCDWPLATCR
modifications: Depicts the amino acid sequence of the enzyme Cinnamte 4 hydroxylase 4 coumarate coenzyme ligase fusion (C4H4CL)
B3: Glycosyltransferase (UGT) (SEQ ID NO: 42) Mates domestica (protein, listed as Malus domestica)
chain: MKKVELVFIPSPGAGHHLPTLQFVKRLIDRNDRISITILAIQSYFPTTLSSYTKSIAASEPRIRFIDVPQPQDRPPQEMYKSRAQIFSLYIESHVPSVKKIITNLVSSSANSSDSIRVAALVVDLFCVSMIDVAKELNIPSYLFLTSNAGYLAFMLHLPILHEKNQIAVEESDPDWSIPGIVHPVPPRVLPAALTDGRLSAYIKLASRFRETRGIIVNTFVELETHAITLFSNDDRVPPVYPVGPVIDLDDGQEHSNLDQAQRDKIIKWLDDQPQKSVVFLCFGSMGSFGAEQVKEIAVGLEQSGQRFLWSLRMPSPKGIVPSDCSNLEEVLPDGFLERTNGKKGLICGWAPQVEILAHSATGGFLSHCGWNSILESLWHGVPIATWPMYAEQQLNAFRMVRELGMALEMRLDYKAGSADVVGADEIEKAVVGVMEKDSEVRKKVEEMGKMARKAVKDGGSSFASVGRFIEDVIGQN
B4: Glycosyltransferase (UGT) (SEQ ID NO: 44) Lycium barbarum (protein)
chain: MGHLVSTVEMAKQLVDREDQLSITVLIMTLPTETKIPSYTKSLSSNYTSRIRLLELTQPETSVNMGSATHPMKFMSEFITSYKGRVKDAVADMFSSLSSVKLAGFVIDMFCTAMIDVANDFGVPSYLFYTSGAAMLGLQFHFQSLISQNVLSYLDSESEVLIPTYINPVPVKFLPGLILDNDEYSIMFLDLAGRFKETKGIMVNTFVEVESHALKALSDDEKIPPIYPVGPILNLGGGNDGHGEEYDSIMKWLDGQPNSSVVFLCFGSMGSFEEDQVKEVANALESSGYQFLWSLRQPPPKDKLQFPSEFENLEEVLPEGFLQRTKGRGKMIGWAPQVAILSHPSVGGFVSHCGWNSTLESVRSGVPMATWPMYAEQQSNAFQLVKDLEMAVEIKMDYRKDFMTINQPVLVKAEEIGNGIRQLMDLVNKIRAKVRKMKEKSEAAIMEGGSSYVALGNFVETVMKS
modifications: Depcits the amino acid sequence of Glycosyltransferase (UGT of Lycium barbarum)
B5: Glycosyltransferase (UGT) (SEQ ID NO: 48) Barbarea vulgaris (protein, listed as Barbarea vulgaris)
chain: MKSELVFIPYPGIGHLRPTVEVAKLLVDREPRLSISVFILPFISGDEVGASDYISALSAASNDRLRYKVIFTGDQETAEPTKLTLHIENQVPKVRTAVAKLIDEYSKLLDSPKIVGFVLDMFCTSMIDVANEFELPSYMFFTSSAGILAVSFHVQVLYDEKKCNFSETMFEDSEAELILPSLTRPYPVKSLPYALFRTEMLIMHVNLARRFRELKGILVNTVDELEPHALKFLLSGITPPAYPVGPLLHLESNQDDESEDEKRSEIIMWLDEQPASSVVFLCFGSMGGFSEEQTREIAIALERSGHRFLWSLRRESPNIDKELPGEFTNLEEVLPEGFFDRTKGIGKVIGWAPQVAVLENPAIGGFVTHGGWNSVLESLWFGVPTAMWPLYAEQKFNAFVMVEELGLAVEIKKYWRGDLLLGRSAMEIVTADEIERGITCLMQQDSDVRKRVKEMKGKCHVALMDGGSSTLALDKFVEDVTKNI
B6: Glycosyltransferase (UGT) (SEQ ID NO: 46) Cicer arietinum (protein, listed as Cicer arietinum)
chain: MKKIEVVFIPSPGVGHLISTLEFANLLINRNNRLNITVLVINFPKTVEKQTNYSLTESENLHVINLPQTTTHVPSTSDVGNSISALVETQKSNVKQAVSNLTGTLAAFVVDMFCTTMIDVANELGVPSLVFFTSGVAFLGLMLHLHTIWEQQDTELLLQQDELDIPSFANPVATNTLPTLVLRKEWESSFIKYGNGLKKASGIIVNSFHELEPHAVRSFLEDPTLRDLPIYPVGPILNPKSNVDSDDVIKWLDDQPPSSVVFLCFGSMGTFDEEQVREIALAIERSGVRFLWSLRKPQPQGTMVPPSDYTLSQMLEVLPEGFLDRTANIGRVIGWAPQVQVLAHQATGGFVSHCGWNSTLESIYYGVPIATWPLFAEQQTNAFELVRELKIAVEIALDYRLEFDIGRNYLLDADKIERGIRGVLDKDGEVRKKVKEMSQKSRNVLLEGGSSYTYLGQLIDYITNQV

System: pathway specific substrates
Assay: Enzyme functionality of pathway enzyme homologs and fusion constructs in lysed E. coli cell extracts, product by HPLC
Type: biochemical, E. coli BL21
Conditions: recombinant E. coli BL21 clone, lysed cell extract
Procedure: As per one of the possible implementations of the present disclosure, two proteins—cinnamate-4-hydroxylate (C4H) and 4-coumaroyl CoA-ligase (4CL) were expressed as one fusion protein. Also, other two proteins which were expressed as one fusion protein were hydroxycinnamoyl-CoA quinate hydroxycinnamoyltransferase (HCT) and p-coumaroyl quinate 3′-hydroxylase (HCTC3H). The fusion gene and the corresponding fusion protein was prepared using the following method. […] The enzyme fusion constructs were made for the selected genes (Table 5). Pathway genes and the fusion constructs were individually cloned in E. coli expression vector pET28+ under T7 promoter and transformed in E. coli BL21 cells. Recombinant bacterial cells were induced with IPTG and enzyme functionality was tested with pathway specific substrates (Table 5) using lysed E. coli cell extracts. HPLC analysis was carried out to quantify the product formation and in turn shortlisting of efficient enzymes for functional pathway assembly towards Etoposide in E. coli.
The E. coli transformants were grown overnight at 37° C. in 1 ml of M9 minimal media containing ampicillin (100 mg/1), in 96-well format. The next day, 150 μl of each culture was inoculated into 3 ml M9 minimal media containing ampicillin (100 mg/1), IPTG 0.1 mM in 24-well format, and incubated at 30° C. and 200 rpm for ˜20 hours. The following day, cells were spun down and pellets were resuspended in 100 μl of lysis buffer containing 10 mM Tris-HCl pH 8, 5 mM MgCl2, 1 mM CaCl2) and complete mini protease inhibitor EDTA-free (3 tablets/100 ml) (Hoffmann-La Roche, Basel, Switzerland) and frozen at −80° C. for at least 15 minutes to promote cell lysis. Pellets were thawed at room temperature and 50 μl of DNase mix (1 μl of 1.4 mg/ml DNase in H2O (˜80000 u/ml), 1.2 μl of MgCl2 500 mM and 47.8 μl of 4×PBS buffer solution) was added to each well. Plates were shaken at 500 rpm for 5 min at room temperature to allow degradation of genomic DNA. Plates were spun down at 4000 rpm for 30 min at 4° C. and six μl of the lysates were used in in vitro using appropriate substrates for enzymes as per Table 6. In each case, the resulting compounds were measured by HPLC. Results were analysed in comparison with the lysates expressing the corresponding controls (the empty plasmid). […]

[1] = substrate tested: Desmethylepipodophyllotoxin

Row | Molecule | Enzyme activity in terms of product formation (in %) [1] [%] | also measured
1 | B1 |  | Enzyme activity in terms of product formation (in %) (substrate tested: Desmethylepipodophyllotoxin glucopyranoside): 83%
2 | B2 |  | Enzyme activity in terms of product formation (in %) (substrate tested: Cinnamate): 97%
3 | B3 | 54 | 
4 | B4 | 67 | 
5 | B5 | 43 | 
6 | B6 | 97 | 
